For assay [1], the target named is T1, AE.A244 V1/V2 Tags N156QN160Q (HIV-1).
T1 chain: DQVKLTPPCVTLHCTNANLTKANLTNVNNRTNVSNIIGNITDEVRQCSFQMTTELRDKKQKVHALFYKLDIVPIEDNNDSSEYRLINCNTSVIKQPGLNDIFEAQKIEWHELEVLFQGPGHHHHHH
Put plainly: ELISA; markers as in the legend printed on D00157.

Assay [2] concerns the target C.CAP206 gp140CF.12 (HIV-1). In words: ELISA.
Assay [3] deals with T2, gp70 B.CaseA2 V1/V2/V169K/E172V/E173H (HIV-1 V1V2 on murine leukemia virus gp70).
T2 construct: also called gp70 B.CaseA2 V1/V2 Mut3
T2 chain: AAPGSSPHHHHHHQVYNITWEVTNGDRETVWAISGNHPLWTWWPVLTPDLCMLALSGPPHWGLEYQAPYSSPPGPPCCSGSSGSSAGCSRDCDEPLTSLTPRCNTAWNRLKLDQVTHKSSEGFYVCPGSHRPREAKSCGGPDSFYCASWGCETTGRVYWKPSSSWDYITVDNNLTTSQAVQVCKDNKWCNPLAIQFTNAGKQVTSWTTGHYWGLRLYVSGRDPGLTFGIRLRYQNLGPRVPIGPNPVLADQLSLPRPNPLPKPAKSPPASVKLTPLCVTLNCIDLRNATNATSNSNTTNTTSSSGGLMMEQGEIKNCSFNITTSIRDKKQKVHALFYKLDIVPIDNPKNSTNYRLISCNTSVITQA
Put plainly: ELISA. A general note: ELISA stands for enzyme-linked immunosorbent assay.

Assay [4] has as its target AE.A244 V1V2 Tags (HIV-1). Put plainly: ELISA.
Assay [5] deals with AE.A244 V1V2 Tags (HIV-1). Put plainly: ELISA. This is another data set of the same source.
The target of assay [6] is C.1086 V1V2 Tags (HIV-1). Put plainly: ELISA.
The target in assay [7] is T3, gp70 C.1086 V1/V2 (HIV-1 V1V2 on murine leukemia virus gp70).
T3 construct: also called C.gp70 1086C V1V2; C.1086gp70V1V2
T3 chain: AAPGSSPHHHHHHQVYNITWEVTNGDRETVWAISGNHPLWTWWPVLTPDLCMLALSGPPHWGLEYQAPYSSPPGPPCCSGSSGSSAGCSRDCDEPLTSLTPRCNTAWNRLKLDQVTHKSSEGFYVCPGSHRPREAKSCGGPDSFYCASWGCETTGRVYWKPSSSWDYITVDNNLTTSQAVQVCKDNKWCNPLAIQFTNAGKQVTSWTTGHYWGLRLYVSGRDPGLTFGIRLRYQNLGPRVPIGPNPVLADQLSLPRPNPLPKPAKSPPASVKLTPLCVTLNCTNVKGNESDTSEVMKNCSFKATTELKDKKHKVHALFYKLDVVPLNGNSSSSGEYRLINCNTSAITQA
In words: ELISA.

Assay [8] addresses T4, AE.A244 gp120 delta 11 (HIV-1).
T4 construct: also called E.A244gp120Δ11; AE.A244 Δ11 gp120
In words: ELISA.

Assay [9] has as its target AE.A244 V1V2 Tags (HIV-1). In words: ELISA. The source holds these as a separate data set.
Assay [10] addresses C.1086 V1V2 Tags (HIV-1). Put plainly: ELISA. This is another data set of the same source.
Assay [11] deals with T3, gp70 C.1086 V1/V2. Put plainly: ELISA.
Assay [12] has as its target T4, AE.A244 gp120 delta 11. In words: ELISA. This is another data set of the same source.
The target in assay [13] is Env of 92TH023 K169Q virus (HIV-1). In words: cell-based or functional assay.
Assay [14] has as its target Env of CM244NW.6.I181L virus (HIV-1). Put plainly: cell-based or functional assay.
The target of assay [15] is Env of CM244NW.4.K169Q virus (HIV-1). Put plainly: cell-based or functional assay.
The target in assay [16] is Env of AE.CM244 virus (HIV-1). In words: cell-based or functional assay.
The target in assay [17] is Env of 703357.2.Q169K virus (HIV-1). Put plainly: cell-based or functional assay.
Assay [18] has as its target Env of 427299.c12 virus (HIV-1). In words: cell-based or functional assay.
Assay [19] addresses Env of 703357.2.I181L virus (HIV-1). In words: cell-based or functional assay.
The target of assay [20] is Env of 703357.c02 virus (HIV-1). In words: cell-based or functional assay.
The target in assay [21] is Env of 427299.c12.Q169K virus (HIV-1). Put plainly: cell-based or functional assay.
For assay [22], the target named is Env of AE.92TH023 virus (HIV-1). In words: cell-based or functional assay.
Assay [23] addresses Env of TH023.6.I181L virus (HIV-1). Put plainly: cell-based or functional assay.
Assay [24] addresses Env of 703357.2.Q169KR170Q virus (HIV-1). In words: cell-based or functional assay.
For assay [25], the target named is Env of 703357.2.Q169KI181L virus (HIV-1). Put plainly: cell-based or functional assay.
In assay [26] the target is Env of 703357.2.Q169KR170QI181L virus (HIV-1). In words: cell-based or functional assay.
For assay [27], the target named is Env of 427299.c12.KL.Q169K/I181L virus (HIV-1). In words: cell-based or functional assay.
Assay [28] addresses Env of 427299.c12.H81L virus (HIV-1). In words: cell-based or functional assay.

What is called EC50 is the concentration at which the effect is half-maximal. A lower EC50 goes with greater potency.

Where two headings read alike, the source gives them in different places.

B1: PG16 reverted unmutated ancestor antibody (antibody, V domains shown)
VH: QVQLVESGGGVVQPGRSLRLSCAASGFTFSSYGMHWVRQAPGKGLEWVAVISYDGSNKYYADSVKGRFTISRDNSKNTLYLQMNSLRAEDTAVYYCAREAGGPIWHDDVKYYDFNDGYYYYYYMDVWGKGTTVTVSS
VL: QSALTQPASVSGSPGQSITISCTGTSSDVGSYNLVSWYQQHPGKAPKLMIYEVSKRPSGVSNRFSGSKSGNTASLTISGLQAEDEADYYCCSLTDRSHRIFGGGTKLTVL
notes: also called PG16 RUA; PG16_RUA
B1: the binding result in assay [1] was “no binding (tested: 100 ug/ml)”.

B2: 697D (antibody, V domains shown)
VH: QVQLVQSGAEVKKPGSSVKVSCKASGGNFNTYTISWVRQAPGQGLEWMGRIIPIFGIVNPAQKFPGRVTINVDKSTNTAYMELSSLRSEDTAVYYCATSGVGLHFGYFDYWGQGTQVTVSS
VL: QSVLTQPPSVSGAPGQRVTISCTGSSSNIGAHYDVHWYQQLPGTAPKLLIYGNSNRPSGVPDRFSGSKSGTSASLAITGLQAEDEADYYCQSYDSSLSGYVFGTGTKVTVL
notes: also called mAb 697D; V2 conformational mAb 697D
Regarding B2, the 50% effective concentration (EC50) was found to be 0.1 nM in [2]; 0.04 µg/mL in assay [3]; 0.6 nM in assay [4]; 0.1 nM in [5]; 0.23 nM in assay [6]; 0.067 nM in assay [7]. The EC50 was 0.23 nM in [8]; 0.1 nM in [9]; 0.23 nM in [10]; 0.067 nM in assay [11]; 0.23 nM in assay [12].

B3: 697D reverted unmutated ancestor antibody (antibody, V domains shown)
VH: QVQLVQSGAEVKKPGSSVKVSCKASGGTFSSYTISWVRQAPGQGLEWMGRIIPILGIANYAQKFQGRVTITADKSTSTAYMELSSLRSEDTAVYYCATSGVGLHFGYFDYWGQGTLVTVSS
VL: QSVLTQPPSVSGAPGQRVTISCTGSSSNIGAGYDVHWYQQLPGTAPKLLIYGNSNRPSGVPDRFSGSKSGTSASLAITGLQAEDEADYYCQSYDSSLSGYVFGTGTKVTVL
notes: also called 697D RUA
With B3, the EC50 in assay [8] and in assay [12] was over 667 nM each time.

B4: CH58 reverted unmutated ancestor antibody (antibody, V domains shown)
VH: EVQLVQSGAEVKKPGESLKISCKGSGYSFTSYWIGWVRQMPGKGLEWMGIIYPGDSDTRYSPSFQGQVTISADKSISTAYLQWSSLKASDTAMYYCARLGGRYYYDSSGYYYFDYWGQGTLVTVSS
VL: NFMLTQPHSVSESPGKTVTISCTRSSGSIASNYVQWYQQRPGSSPTTVIYEDNQRPSGVPDRFSGSIDSSSNSASLTISGLKTEDEADYYCQSYDSSSWVFGGGTKLTVL
notes: also called CH58 RUA; CH58_RUA
For B4, the “ID50 assayed in TZM-bl cells, TH023.6.K169Q” value in [13] was over 50 µg/mL. The “ID50 assayed in TZM-bl cells, CM244NW.6.I181L” value in [14] is over 50 µg/mL. Moreover, in [15], the “ID50 assayed in TZM-bl cells, CM244NW.4.K169Q” value is over 50 µg/mL. For the same molecule, the “ID50 assayed in TZM-bl cells, CM244.ec1” value in assay [16] was over 50 µg/mL. Besides, the “ID50 assayed in TZM-bl cells, 703357.2.Q169K” value in [17] was over 50 µg/mL. For the same molecule, the “ID50 assayed in TZM-bl cells, 427299.c12” value in assay [18] is over 50 µg/mL. Further, in assay [19], the “ID50 assayed in TZM-bl cells, 703357.2.I181L” value is over 50 µg/mL. The “ID50 assayed in TZM-bl cells, 703357.c02” value in assay [20] was over 50 µg/mL. Also, the “ID50 assayed in TZM-bl cells, 427299.c12.Q169K” value in assay [21] was over 50 µg/mL. Further, the “ID50 assayed in TZM-bl cells, TH023.6” value in assay [22] is over 50 µg/mL. In assay [23], the “ID50 assayed in TZM-bl cells, TH023.6.I181L” value is over 50 µg/mL. For the same molecule, the “ID50 assayed in TZM-bl cells, 703357.2.Q169KR170Q” value in assay [24] was over 50 µg/mL. Also, in assay [25], the “ID50 assayed in TZM-bl cells, 703357.2.Q169KI181L” value was over 50 µg/mL. The “ID50 assayed in TZM-bl cells, 703357.2.Q169KR170QI181L” value in [26] is over 50 µg/mL. Further, the “ID50 assayed in TZM-bl cells, 427299.c12.KL.Q169K/I181L” value in assay [27] is over 50 µg/mL. Further, the “ID50 assayed in TZM-bl cells, 427299.c12.H81L” value in assay [28] was over 50 µg/mL. Also, the EC50 in assay [7] and in assay [11] was over 66.7 nM throughout.

The values are drawn from patent publication US9988424 (DUKE UNIVERSITY, dated 2018).
